Source: article PMC3808375, “Reduction of Decoy Receptor 3 Enhances TRAIL-Mediated Apoptosis in Pancreatic Cancer” (PLoS ONE, 2013)
Read-outs that look alike come from different tables or passages of the source.

Key:
[1] = biological target: recombinant human DcR3 (decoy receptor 3) (human) (UniProt O95407); experiment: SPR; Biacore 3000; DcR3 amine-coupled to a CM5 chip; TRAIL 1-2048 nM or LIGHT 1-512 nM flowed at 20 µl/minute; HBS-EP buffer (10 mM HEPES pH 7.4, 150 mM NaCl, 3.4 mM EDTA, 0.005% Surfactant P20); 1:1 binding model, global analysis
[2] = biological target: recombinant human DcR3 (decoy receptor 3) (human) (UniProt O95407); experiment: as above; remark: listed apart in the source

Sequence of recombinant human DcR3 (decoy receptor 3) (human) (O95407 30-300): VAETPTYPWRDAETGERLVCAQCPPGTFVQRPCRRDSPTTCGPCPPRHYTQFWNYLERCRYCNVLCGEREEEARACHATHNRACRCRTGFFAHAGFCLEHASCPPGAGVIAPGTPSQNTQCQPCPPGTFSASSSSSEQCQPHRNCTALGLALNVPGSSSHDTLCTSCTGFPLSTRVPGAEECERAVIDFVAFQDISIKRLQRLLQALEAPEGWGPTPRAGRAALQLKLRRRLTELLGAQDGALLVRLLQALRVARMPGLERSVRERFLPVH

- Kd [1]: 52.8 nM
- koff [1]: 0.00104 s⁻¹
- kon [1]: 19400 M⁻¹ s⁻¹
- kon [2]: 19700 M⁻¹ s⁻¹
Substance: recombinant human TRAIL (TNF-related apoptosis-inducing ligand) (from UniProt P50591 1-281)
